Target: double-mutant TPX2 (2M-TPX2) (Xenopus laevis) (UniProt Q6NUF4)
Test: BLI; Octet (ForteBio); TPX2 attached to sensors, importin concentration varied; normalized amplitudes; apparent Kd

importin-αΔIBB (truncated importin-α without the importin-β-binding domain) (domain or fragment), sequence (P52170 71-522, stated change not applied): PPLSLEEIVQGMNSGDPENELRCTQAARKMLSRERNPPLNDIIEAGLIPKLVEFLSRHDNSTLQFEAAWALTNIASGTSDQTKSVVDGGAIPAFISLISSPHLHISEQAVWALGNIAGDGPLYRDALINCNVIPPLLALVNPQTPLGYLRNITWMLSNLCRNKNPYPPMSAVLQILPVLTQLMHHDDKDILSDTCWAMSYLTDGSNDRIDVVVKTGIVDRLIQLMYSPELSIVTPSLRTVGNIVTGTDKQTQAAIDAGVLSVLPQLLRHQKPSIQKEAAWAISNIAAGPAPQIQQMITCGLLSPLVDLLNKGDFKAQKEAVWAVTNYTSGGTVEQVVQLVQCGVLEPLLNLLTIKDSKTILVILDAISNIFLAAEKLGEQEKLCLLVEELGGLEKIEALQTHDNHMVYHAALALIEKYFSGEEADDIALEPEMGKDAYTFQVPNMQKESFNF

- Kd: 45 nM
Substance: importin-αΔIBB (truncated importin-α without the importin-β-binding domain) (domain or fragment)

Reference: article PMC8390506
